The labels stand for the following.
B1: KAT8 regulatory NSL complex subunit 2, residues 28 to 91; numbered along this chain, Q9H9L4 (parent)
chain: CAFTHRPCSHPRLEGQEFCIKHILEDKNAPFKQCSYISTKNGKRCPNAAPKPEKKDGVSFCAEH

± gives the uncertainty stated by the source.

This data set covers variants of B1. Put plainly: abundance fitness (aPCA) (normalised: wild type 0, dead -1); higher = more abundant; growth selection in yeast, the domain comes from the species named. The note with it: Homo sapiens.
With CAFTHRPCSHPRTEGQEFCIKHILEDKNAPFKQCSYISTKNGKRCPNAAPKPEKKDGVSFCAEH [L13T], the abundance fitness was -0.308 ± 0.082.
As for CAFTHRPCSHPRQEGQEFCIKHILEDKNAPFKQCSYISTKNGKRCPNAAPKPEKKDGVSFCAEH [L13Q], the figure is -0.176 ± 0.13; as for CAFTHRPCSHPRSEGQEFCIKHILEDKNAPFKQCSYISTKNGKRCPNAAPKPEKKDGVSFCAEH [L13S], -0.331 ± 0.067; as for CAFTHRPCSHPRMEGQEFCIKHILEDKNAPFKQCSYISTKNGKRCPNAAPKPEKKDGVSFCAEH [L13M], -0.048 ± 0.11.
As for CAFTHRPCSHPRNEGQEFCIKHILEDKNAPFKQCSYISTKNGKRCPNAAPKPEKKDGVSFCAEH [L13N], the figure is -0.53 ± 0.15; as for CAFTHRPCSHPRYEGQEFCIKHILEDKNAPFKQCSYISTKNGKRCPNAAPKPEKKDGVSFCAEH [L13Y], -0.277 ± 0.1; as for CAFTHRPCSHPRWEGQEFCIKHILEDKNAPFKQCSYISTKNGKRCPNAAPKPEKKDGVSFCAEH [L13W], -0.315 ± 0.12.
On to CAFTHRPCSHPRPEGQEFCIKHILEDKNAPFKQCSYISTKNGKRCPNAAPKPEKKDGVSFCAEH [L13P], for which the abundance fitness was -0.86 ± 0.093.
For CAFTHRPCSHPRKEGQEFCIKHILEDKNAPFKQCSYISTKNGKRCPNAAPKPEKKDGVSFCAEH [L13K], the abundance fitness was -0.24 ± 0.18.
As for CAFTHRPCSHPRREGQEFCIKHILEDKNAPFKQCSYISTKNGKRCPNAAPKPEKKDGVSFCAEH [L13R], the abundance fitness is -0.465 ± 0.056.
Regarding CAFTHRPCSHPRIEGQEFCIKHILEDKNAPFKQCSYISTKNGKRCPNAAPKPEKKDGVSFCAEH [L13I], the abundance fitness was -0.145 ± 0.13.
As for CAFTHRPCSHPRVEGQEFCIKHILEDKNAPFKQCSYISTKNGKRCPNAAPKPEKKDGVSFCAEH [L13V], the figure is -0.127 ± 0.084; as for CAFTHRPCSHPRLECQEFCIKHILEDKNAPFKQCSYISTKNGKRCPNAAPKPEKKDGVSFCAEH [G15C], -0.403 ± 0.14; as for CAFTHRPCSHPRLEPQEFCIKHILEDKNAPFKQCSYISTKNGKRCPNAAPKPEKKDGVSFCAEH [G15P], -0.543 ± 0.04.
CAFTHRPCSHPRLERQEFCIKHILEDKNAPFKQCSYISTKNGKRCPNAAPKPEKKDGVSFCAEH [G15R]: the abundance fitness was -0.228 ± 0.056.
In the case of CAFTHRPCSHPRLEVQEFCIKHILEDKNAPFKQCSYISTKNGKRCPNAAPKPEKKDGVSFCAEH [G15V], the abundance fitness was -0.972 ± 0.076.
On to CAFTHRPCSHPRLETQEFCIKHILEDKNAPFKQCSYISTKNGKRCPNAAPKPEKKDGVSFCAEH [G15T], for which the abundance fitness is -0.428 ± 0.089.
Consider CAFTHRPCSHPRLEFQEFCIKHILEDKNAPFKQCSYISTKNGKRCPNAAPKPEKKDGVSFCAEH [G15F], for which the abundance fitness is -0.406 ± 0.1.
As for CAFTHRPCSHPRLEDQEFCIKHILEDKNAPFKQCSYISTKNGKRCPNAAPKPEKKDGVSFCAEH [G15D], the figure is -0.127 ± 0.14; as for CAFTHRPCSHPRLEYQEFCIKHILEDKNAPFKQCSYISTKNGKRCPNAAPKPEKKDGVSFCAEH [G15Y], -0.706 ± 0.3; as for CAFTHRPCSHPRLEWQEFCIKHILEDKNAPFKQCSYISTKNGKRCPNAAPKPEKKDGVSFCAEH [G15W], -0.592 ± 0.091.
Take CAFTHRPCSHPRLEEQEFCIKHILEDKNAPFKQCSYISTKNGKRCPNAAPKPEKKDGVSFCAEH [G15E]: the abundance fitness was -0.219 ± 0.073.
Take CAFTHRPCSHPRLENQEFCIKHILEDKNAPFKQCSYISTKNGKRCPNAAPKPEKKDGVSFCAEH [G15N]: the abundance fitness is -0.134 ± 0.12.
As for CAFTHRPCSHPRLEQQEFCIKHILEDKNAPFKQCSYISTKNGKRCPNAAPKPEKKDGVSFCAEH [G15Q], the figure is -0.134 ± 0.11; as for CAFTHRPCSHPRLEMQEFCIKHILEDKNAPFKQCSYISTKNGKRCPNAAPKPEKKDGVSFCAEH [G15M], -0.199 ± 0.07; as for CAFTHRPCSHPRLEAQEFCIKHILEDKNAPFKQCSYISTKNGKRCPNAAPKPEKKDGVSFCAEH [G15A], -0.284 ± 0.064.
Regarding CAFTHRPCSHPRLEHQEFCIKHILEDKNAPFKQCSYISTKNGKRCPNAAPKPEKKDGVSFCAEH [G15H], the abundance fitness is -0.263 ± 0.11.
As for CAFTHRPCSHPRLEGYEFCIKHILEDKNAPFKQCSYISTKNGKRCPNAAPKPEKKDGVSFCAEH [Q16Y], the figure is -0.187 ± 0.17; as for CAFTHRPCSHPRLEGKEFCIKHILEDKNAPFKQCSYISTKNGKRCPNAAPKPEKKDGVSFCAEH [Q16K], -0.143 ± 0.1.
Consider CAFTHRPCSHPRLEGNEFCIKHILEDKNAPFKQCSYISTKNGKRCPNAAPKPEKKDGVSFCAEH [Q16N], for which the abundance fitness was -0.25 ± 0.086.
As for CAFTHRPCSHPRLEGTEFCIKHILEDKNAPFKQCSYISTKNGKRCPNAAPKPEKKDGVSFCAEH [Q16T], the abundance fitness is -0.15 ± 0.074.
With CAFTHRPCSHPRLEGEEFCIKHILEDKNAPFKQCSYISTKNGKRCPNAAPKPEKKDGVSFCAEH [Q16E], the abundance fitness is -0.261 ± 0.078.
For the variant CAFTHRPCSHPRLEGSEFCIKHILEDKNAPFKQCSYISTKNGKRCPNAAPKPEKKDGVSFCAEH [Q16S], the abundance fitness was -0.091 ± 0.054.
In the case of CAFTHRPCSHPRLEGLEFCIKHILEDKNAPFKQCSYISTKNGKRCPNAAPKPEKKDGVSFCAEH [Q16L], the abundance fitness is -0.054 ± 0.053.
Consider CAFTHRPCSHPRLEGPEFCIKHILEDKNAPFKQCSYISTKNGKRCPNAAPKPEKKDGVSFCAEH [Q16P], for which the abundance fitness is -1.11 ± 0.11.
As for CAFTHRPCSHPRLEGDEFCIKHILEDKNAPFKQCSYISTKNGKRCPNAAPKPEKKDGVSFCAEH [Q16D], the figure is -0.408 ± 0.2.
Turning to CAFTHRPCSHPRLEGREFCIKHILEDKNAPFKQCSYISTKNGKRCPNAAPKPEKKDGVSFCAEH [Q16R], the abundance fitness is -0.089 ± 0.044.
For the variant CAFTHRPCSHPRLEGIEFCIKHILEDKNAPFKQCSYISTKNGKRCPNAAPKPEKKDGVSFCAEH [Q16I], the abundance fitness is -0.497 ± 0.09.
With CAFTHRPCSHPRLEGMEFCIKHILEDKNAPFKQCSYISTKNGKRCPNAAPKPEKKDGVSFCAEH [Q16M], the abundance fitness was -0.146 ± 0.11.
As for CAFTHRPCSHPRLEGVEFCIKHILEDKNAPFKQCSYISTKNGKRCPNAAPKPEKKDGVSFCAEH [Q16V], the figure is -0.38 ± 0.068; as for CAFTHRPCSHPRLEGCEFCIKHILEDKNAPFKQCSYISTKNGKRCPNAAPKPEKKDGVSFCAEH [Q16C], -0.198 ± 0.065; as for CAFTHRPCSHPRLEGWEFCIKHILEDKNAPFKQCSYISTKNGKRCPNAAPKPEKKDGVSFCAEH [Q16W], -0.226 ± 0.058.

(Values after the Human Domainome abundance scans (Beltran et al. 2025).)
